Article doi:10.1101/2022.08.24.505078, “Cyclic AMP competitively inhibits periplasmic phosphatases to coordinate nutritional growth with competence development of Haemophilus influenzae” (bioRxiv, 2022)

B1: AphAEc-His6 (periplasmic acid phosphatase AphA of E. coli, signal peptide removed, C-terminal six-histidine tag) (enzyme, UniProt P0AE22 26-237, looked up)
chain: SSPSPLNPGTNVARLAEQAPIHWVSVAQIENSLAGRPPMAVGFDIDDTVLFSSPGFWRGKKTFSPESEDYLKNPVFWEKMNNGWDEFSIPKEVARQLIDMHVRRGDAIFFVTGRSPTKTETVSKTLADNFHIPATNMNPVIFAGDKPGQNTKSQWLQDKNIRIFYGDSDNDITAARDVGARGIRILRASNSTYKPLPQAGAFGEEVIVNSEY
notes: AphA, non-specific periplasmic acid phosphatase of E. coli, with the N-terminal signal peptide removed; also called AphA-His6; Ct His6 tagged AphAEc; source: E. coli, purified (Ni-NTA, size exclusion chromatography on Superdex 200 Increase); not shown: His6, C-terminal, kept
B2: His6-AphAEc (periplasmic acid phosphatase AphA of E. coli, signal peptide removed, N-terminal six-histidine tag) (enzyme, UniProt P0AE22 26-237, looked up)
chain: B1 chain
notes: AphA, non-specific periplasmic acid phosphatase of E. coli, with the N-terminal signal peptide removed; also called Nt His6 tagged AphAEc; source: E. coli, purified (Ni-NTA, size exclusion chromatography on Superdex 200 Increase); not shown: His6, N-terminal, kept
B3: tag-less AphAEc (AphA of E. coli after removal of the N-terminal His6-SUMO tag by Ulp1) (enzyme)
chain: SPSPLNPGTNVARLAEQAPIHWVSVAQIENSLAGRPPMAVGFDIDDTVLFSSPGFWRGKKTFSPESEDYLKNPVFWEKMNNGWDEFSIPKEVARQLIDMHVRRGDAIFFVTGRSPTKTETVSKTLADNFHIPATNMNPVIFAGDKPGQNTKSQWLQDKNIRIFYGDSDNDITAARDVGARGIRILRASNSTYKPLPQAGAFGEEVIVNSEY
notes: AphA, non-specific periplasmic acid phosphatase of E. coli; protein of around 25 kDa after cleavage; The linker between SUMO and AphA was removed by mutagenesis; also called cleaved tag-less AphAEc; source: E. coli, purified as His6-SUMO-AphAEc, tag cleaved off with His6-Ulp1, size exclusion chromatography; not shown: His6-SUMO, N-terminal, cleaved

Biological target: the molecule itself
Assay: SEC; purified protein on a Superdex 200 Increase 10/300 GL column; size read against standard proteins

| Protein | stoichiometry N |
| --- | --- |
| B1 | 2 |
| B2 | 4 |
| B3 | 4 |
